Experiment in all cases: cell-based or functional assay
Assay [1] addresses human IL-17RA on cells (human PBMC; human foreskin fibroblasts) (human) (UniProt Q96F46).
Assay [2] addresses human IL-17RB on human PBMC (human) (UniProt Q9NRM6).
Assay [3] addresses IL-25 (R&D Systems) used to restimulate human PBMC (UniProt Q9H293).

“And” between values parts separate entries of the source, which are not always exact repeats. Equal entries are not always repeated.

Sequence of IL-25 (R&D Systems) used to restimulate human PBMC (Q9H293 33-177 limits assumed): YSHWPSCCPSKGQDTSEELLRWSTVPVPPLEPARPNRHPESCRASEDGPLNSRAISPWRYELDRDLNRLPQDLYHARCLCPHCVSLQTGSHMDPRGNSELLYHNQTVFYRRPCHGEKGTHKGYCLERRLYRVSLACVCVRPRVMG
Sequence of human IL-17RB on human PBMC (human) (Q9NRM6 18-502): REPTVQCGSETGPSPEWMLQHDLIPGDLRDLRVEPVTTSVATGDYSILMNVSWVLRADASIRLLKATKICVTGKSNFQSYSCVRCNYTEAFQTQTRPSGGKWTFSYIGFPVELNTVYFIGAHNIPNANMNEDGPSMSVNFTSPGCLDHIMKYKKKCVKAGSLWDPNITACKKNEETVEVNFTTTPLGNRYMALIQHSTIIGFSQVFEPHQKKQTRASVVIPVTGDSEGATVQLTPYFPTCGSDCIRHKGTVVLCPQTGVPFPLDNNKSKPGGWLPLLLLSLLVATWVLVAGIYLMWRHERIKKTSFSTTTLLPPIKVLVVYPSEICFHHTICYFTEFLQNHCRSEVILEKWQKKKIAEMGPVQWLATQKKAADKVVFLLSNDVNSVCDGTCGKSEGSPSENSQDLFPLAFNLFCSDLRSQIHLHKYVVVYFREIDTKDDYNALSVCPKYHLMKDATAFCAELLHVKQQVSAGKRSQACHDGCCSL

For “MAB1771: anti-HuIL-17RA MuIgG2b (R&D Systems) (antibody)”, in assay [1], the % Inhibition of IL-5 production (TSLP treated human PBMC + IL-2 + IL-25), inhibitor 10 micrograms/mL is 24% and 33%.

With “MAB1207: anti-HuIL-17RB MuIgG2b (R&D Systems) (antibody)”, the % Inhibition of IL-5 production (TSLP treated human PBMC + IL-2 + IL-25), inhibitor 10 micrograms/mL in assay [2] was 13%.

For “HuIL-17RB: HIS (extracellular region of human IL-17RB fused to poly HIS) (from UniProt Q9NRM6 18-292) (receptor)”, the % Inhibition of IL-5 production (TSLP treated human PBMC + IL-2 + IL-25), inhibitor 10 micrograms/mL in assay [3] amounted to 67%.

The values above are taken from patent US20170114140A1.
